From PMC4775417 (Structure (London, England : 1993), 2016)

Molecular target: Met1-linked tri-ubiquitin chain (UniProt P0CG48 1-76; P0CG48 1-76; P0CG48 1-76)
Assay: SPR

Chain of Met1-linked tri-ubiquitin chain (P0CG48 1-228, one chain of several): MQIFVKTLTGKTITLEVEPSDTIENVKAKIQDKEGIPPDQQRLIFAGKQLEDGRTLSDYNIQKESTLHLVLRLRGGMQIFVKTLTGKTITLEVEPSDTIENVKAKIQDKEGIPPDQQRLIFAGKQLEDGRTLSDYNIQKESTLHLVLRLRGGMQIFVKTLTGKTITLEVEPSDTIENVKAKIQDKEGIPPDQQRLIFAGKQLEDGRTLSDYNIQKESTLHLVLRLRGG

binding result: binds
B1: His-tagged AIRAPL tUIM (residues 188-240), wild type (domain or fragment, mouse, UniProt Q91X58 188-240, looked up)
chain: PVIALQNGLSEDEALQRALELSLAEAKPQVLSSQEEDDLALAQALSASEAEYQ
